tested on: Escherichia coli TOP10; experiment: shrunken log2 fold change of peptide-encoding DNA abundance (4.5 h post-induction vs induction); higher = less antimicrobial activity (less host growth inhibition); conditions: time post-induction: 4.5 h; library: site-saturation at positions 5, 18, 19, 20
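Further: peptides expressed intracellularly from a pBAD plasmid library in pooled LB shake-flask culture, induced with 0.3% L-arabinose, DNA abundance read by NGS, three biological replicates, DESeq2 with apeglm shrinkage.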

Row | Sequence | shrunken log2 fold change
1 | RRIRRRPPRLPRPRPRPFAVPRP | 0.0874
2 | RRIRMRPPRLPRPRPRPSQDPRP | 0.224
3 | RRIRERPPRLPRPRPRPEVAPRP | 0.907
4 | RRIRPRPPRLPRPRPRPMFCPRP | -0.332
5 | RRIRKRPPRLPRPRPRPQTQPRP | 0.26
6 | RRIRERPPRLPRPRPRPPKMPRP | -0.212
7 | RRIRFRPPRLPRPRPRPKVRPRP | -0.022
8 | RRIRRRPPRLPRPRPRPNKYPRP | 0.861
9 | RRIRERPPRLPRPRPRPTQEPRP | 0.0237
10 | RRIRGRPPRLPRPRPRPAAHPRP | 0.807
11 | RRIRSRPPRLPRPRPRPIDWPRP | 0.217
12 | RRIRERPPRLPRPRPRPFEDPRP | -0.0547
13 | RRIRNRPPRLPRPRPRPPCNPRP | -0.517
14 | RRIRDRPPRLPRPRPRPFGPPRP | -0.0754
15 | RRIRIRPPRLPRPRPRPVYGPRP | -0.351
16 | RRIRMRPPRLPRPRPRPDFIPRP | -0.0216
17 | RRIRPRPPRLPRPRPRPDDEPRP | 0.331
18 | RRIRLRPPRLPRPRPRPEYKPRP | -0.438
19 | RRIRVRPPRLPRPRPRPCNIPRP | 0.0254
20 | RRIRSRPPRLPRPRPRPDVLPRP | -0.104
21 | RRIRGRPPRLPRPRPRPNWSPRP | 0.131
22 | RRIRTRPPRLPRPRPRPDEHPRP | -0.0955
23 | RRIRRRPPRLPRPRPRPLKIPRP | -0.0377
24 | RRIRVRPPRLPRPRPRPSWRPRP | -0.0696
25 | RRIRLRPPRLPRPRPRPMFTPRP | -0.0806

Row | Sequence | shrunken log2 fold change
26 | RRIRRRPPRLPRPRPRPLMPPRP | 0.297
27 | RRIRDRPPRLPRPRPRPNLTPRP | -0.325
28 | RRIRPRPPRLPRPRPRPVIWPRP | -0.0495
29 | RRIRTRPPRLPRPRPRPAWFPRP | 0.131
30 | RRIRWRPPRLPRPRPRPVFVPRP | -0.0738
31 | RRIRSRPPRLPRPRPRPVPIPRP | 0.129
32 | RRIRGRPPRLPRPRPRPDDIPRP | 0.027
33 | RRIRDRPPRLPRPRPRPECPPRP | 0.0118
34 | RRIRLRPPRLPRPRPRPVVVPRP | 1.45
35 | RRIRSRPPRLPRPRPRPPGWPRP | 0.193
36 | RRIRWRPPRLPRPRPRPNQDPRP | 0.0957
37 | RRIRHRPPRLPRPRPRPQGEPRP | -0.171
38 | RRIRARPPRLPRPRPRPQWEPRP | 0.196
39 | RRIRFRPPRLPRPRPRPDKPPRP | 0.0269
40 | RRIRRRPPRLPRPRPRPCDWPRP | 0.156
41 | RRIRCRPPRLPRPRPRPQIHPRP | -0.548
42 | RRIRNRPPRLPRPRPRPHWVPRP | -0.0512
43 | RRIRCRPPRLPRPRPRPMVIPRP | -0.373
44 | RRIRCRPPRLPRPRPRPFPRPRP | 0.134
45 | RRIRRRPPRLPRPRPRPLAKPRP | 0.571
46 | RRIRERPPRLPRPRPRPQGWPRP | 0.114
47 | RRIRDRPPRLPRPRPRPSGKPRP | -0.24
48 | RRIRPRPPRLPRPRPRPRAHPRP | 0.345
49 | RRIRIRPPRLPRPRPRPFYIPRP | -0.308
50 | RRIRVRPPRLPRPRPRPWMHPRP | -0.406

Row | Sequence | shrunken log2 fold change
51 | RRIRTRPPRLPRPRPRPHTRPRP | 0.0252
52 | RRIRGRPPRLPRPRPRPLPLPRP | 0.627
53 | RRIRDRPPRLPRPRPRPLPDPRP | 0.701
54 | RRIRPRPPRLPRPRPRPHCYPRP | -0.2
55 | RRIRNRPPRLPRPRPRPNHMPRP | -0.16
56 | RRIRFRPPRLPRPRPRPHNQPRP | -0.75
57 | RRIRGRPPRLPRPRPRPFLCPRP | 0.231
58 | RRIRDRPPRLPRPRPRPMMGPRP | 0.0397
59 | RRIRVRPPRLPRPRPRPVVTPRP | 0.0368
60 | RRIRTRPPRLPRPRPRPVSYPRP | -0.242
61 | RRIRMRPPRLPRPRPRPKNIPRP | -0.232
62 | RRIRSRPPRLPRPRPRPCRGPRP | -0.128
63 | RRIRKRPPRLPRPRPRPARTPRP | 0.476
64 | RRIRLRPPRLPRPRPRPCGMPRP | -0.0649
65 | RRIRHRPPRLPRPRPRPLMVPRP | -0.474
66 | RRIRCRPPRLPRPRPRPFCRPRP | -0.0846
67 | RRIRVRPPRLPRPRPRPDVHPRP | -0.159
68 | RRIRYRPPRLPRPRPRPNIRPRP | 0.0146
69 | RRIRVRPPRLPRPRPRPLAPPRP | 0.169
70 | RRIRQRPPRLPRPRPRPKMMPRP | -0.082
71 | RRIRFRPPRLPRPRPRPDSRPRP | 0.391
72 | RRIRHRPPRLPRPRPRPHWKPRP | -0.337
73 | RRIRHRPPRLPRPRPRPMTLPRP | -0.0135
74 | RRIRARPPRLPRPRPRPWEQPRP | 0.248
75 | RRIRIRPPRLPRPRPRPRCNPRP | -0.393

Row | Sequence | shrunken log2 fold change
76 | RRIRERPPRLPRPRPRPRNSPRP | -0.639
77 | RRIRRRPPRLPRPRPRPSQQPRP | -0.0599
78 | RRIRCRPPRLPRPRPRPTCLPRP | 0.00222
79 | RRIRWRPPRLPRPRPRPSGWPRP | 0.422
80 | RRIRQRPPRLPRPRPRPQLDPRP | 0.188
81 | RRIRSRPPRLPRPRPRPFLPPRP | -0.305
82 | RRIRPRPPRLPRPRPRPTYCPRP | 0.00402
83 | RRIRERPPRLPRPRPRPRETPRP | 0.0334
84 | RRIRLRPPRLPRPRPRPNVLPRP | -0.304
85 | RRIRWRPPRLPRPRPRPYIEPRP | -0.629
86 | RRIRARPPRLPRPRPRPWCLPRP | -0.214
87 | RRIRDRPPRLPRPRPRPCPNPRP | -0.02
88 | RRIRKRPPRLPRPRPRPSLSPRP | 0.549
89 | RRIRARPPRLPRPRPRPDPHPRP | 0.373
90 | RRIRIRPPRLPRPRPRPNRCPRP | -0.154
91 | RRIRFRPPRLPRPRPRPWIGPRP | -0.398
92 | RRIRNRPPRLPRPRPRPRSPPRP | 2
93 | RRIRGRPPRLPRPRPRPYECPRP | -0.075
94 | RRIRPRPPRLPRPRPRPVVPPRP | 0.134
95 | RRIRLRPPRLPRPRPRPLDEPRP | -0.0999
96 | RRIRHRPPRLPRPRPRPEFEPRP | 0.0692
97 | RRIRIRPPRLPRPRPRPYCTPRP | -0.215
98 | RRIRHRPPRLPRPRPRPWDVPRP | -0.0319
99 | RRIRKRPPRLPRPRPRPTSSPRP | 0.0586
100 | RRIRIRPPRLPRPRPRPRKRPRP | 0.178

Row | Sequence | shrunken log2 fold change
101 | RRIRDRPPRLPRPRPRPNYKPRP | -0.241
102 | RRIRERPPRLPRPRPRPQQPPRP | 0.166
103 | RRIRFRPPRLPRPRPRPQSNPRP | -0.354
104 | RRIRRRPPRLPRPRPRPILFPRP | -0.026
105 | RRIRLRPPRLPRPRPRPIYRPRP | -0.0597
106 | RRIRDRPPRLPRPRPRPHPYPRP | 0.0304
107 | RRIRGRPPRLPRPRPRPQAKPRP | 1.34
108 | RRIRDRPPRLPRPRPRPLVSPRP | 0.469
109 | RRIRNRPPRLPRPRPRPFITPRP | -0.783
110 | RRIRPRPPRLPRPRPRPASQPRP | 0.0417
111 | RRIRGRPPRLPRPRPRPRPHPRP | 0.51
112 | RRIRQRPPRLPRPRPRPCLTPRP | 0.0158
113 | RRIRMRPPRLPRPRPRPCHYPRP | -0.112
114 | RRIRLRPPRLPRPRPRPCMCPRP | -0.967
115 | RRIRNRPPRLPRPRPRPQLHPRP | -0.358
116 | RRIRFRPPRLPRPRPRPECAPRP | 0.724
117 | RRIRFRPPRLPRPRPRPEKQPRP | -0.0262
118 | RRIRWRPPRLPRPRPRPLGLPRP | 0.116
119 | RRIRKRPPRLPRPRPRPDSEPRP | -0.0164
120 | RRIRDRPPRLPRPRPRPHYVPRP | -0.0495
121 | RRIRWRPPRLPRPRPRPHYAPRP | -0.0597
122 | RRIRYRPPRLPRPRPRPMRGPRP | 0.156
123 | RRIRPRPPRLPRPRPRPCYHPRP | -0.428
124 | RRIRHRPPRLPRPRPRPRSAPRP | 0.356
125 | RRIRHRPPRLPRPRPRPENTPRP | 0.0466

Row | Sequence | shrunken log2 fold change
126 | RRIRNRPPRLPRPRPRPPDRPRP | 0.00517
127 | RRIRKRPPRLPRPRPRPVVYPRP | -0.266
128 | RRIRSRPPRLPRPRPRPFRIPRP | 0.0361
129 | RRIRERPPRLPRPRPRPCAYPRP | -1.05
130 | RRIRQRPPRLPRPRPRPYDQPRP | 0.0352
131 | RRIRIRPPRLPRPRPRPMNTPRP | -0.207
132 | RRIRLRPPRLPRPRPRPWLCPRP | -0.0198
133 | RRIRQRPPRLPRPRPRPSQKPRP | 0.0595
134 | RRIRERPPRLPRPRPRPWPLPRP | 0.0261
135 | RRIRMRPPRLPRPRPRPIGSPRP | 0.079
136 | RRIRTRPPRLPRPRPRPQMKPRP | -0.449
137 | RRIRCRPPRLPRPRPRPQLTPRP | -0.147
138 | RRIRHRPPRLPRPRPRPFLCPRP | -0.172
139 | RRIRERPPRLPRPRPRPGCVPRP | 0.118
140 | RRIRIRPPRLPRPRPRPVYHPRP | -0.262
141 | RRIRYRPPRLPRPRPRPVMIPRP | -0.596
142 | RRIRHRPPRLPRPRPRPLSLPRP | -0.492
143 | RRIRCRPPRLPRPRPRPQWWPRP | 0.433
144 | RRIRWRPPRLPRPRPRPSSHPRP | -0.248
145 | RRIRRRPPRLPRPRPRPPNKPRP | 0.333
146 | RRIRRRPPRLPRPRPRPPSFPRP | 0.251
147 | RRIRRRPPRLPRPRPRPCDHPRP | 0.0118
148 | RRIRKRPPRLPRPRPRPVQWPRP | 0.743
149 | RRIRVRPPRLPRPRPRPNKMPRP | -0.411
150 | RRIRPRPPRLPRPRPRPPASPRP | 0.559

Reference: the supplement of paper PMC9112550, “Optimization of the antimicrobial peptide Bac7 by deep mutational scanning” (BMC Biology, 2022)
